Here are results for eleven molecules from patent publication US20150218285A1 (TORAY INDUSTRIES, published 2015).

Numbering of substitutions follows the chain as printed.

To fix the notation:
T1: CAPRIN-1 protein on the cell surface of human cancer cells (human, UniProt Q14444 2-709)
T1 construct: whole, on cells; endogenous protein of human cancer cell lines
T1 sequence (looked up): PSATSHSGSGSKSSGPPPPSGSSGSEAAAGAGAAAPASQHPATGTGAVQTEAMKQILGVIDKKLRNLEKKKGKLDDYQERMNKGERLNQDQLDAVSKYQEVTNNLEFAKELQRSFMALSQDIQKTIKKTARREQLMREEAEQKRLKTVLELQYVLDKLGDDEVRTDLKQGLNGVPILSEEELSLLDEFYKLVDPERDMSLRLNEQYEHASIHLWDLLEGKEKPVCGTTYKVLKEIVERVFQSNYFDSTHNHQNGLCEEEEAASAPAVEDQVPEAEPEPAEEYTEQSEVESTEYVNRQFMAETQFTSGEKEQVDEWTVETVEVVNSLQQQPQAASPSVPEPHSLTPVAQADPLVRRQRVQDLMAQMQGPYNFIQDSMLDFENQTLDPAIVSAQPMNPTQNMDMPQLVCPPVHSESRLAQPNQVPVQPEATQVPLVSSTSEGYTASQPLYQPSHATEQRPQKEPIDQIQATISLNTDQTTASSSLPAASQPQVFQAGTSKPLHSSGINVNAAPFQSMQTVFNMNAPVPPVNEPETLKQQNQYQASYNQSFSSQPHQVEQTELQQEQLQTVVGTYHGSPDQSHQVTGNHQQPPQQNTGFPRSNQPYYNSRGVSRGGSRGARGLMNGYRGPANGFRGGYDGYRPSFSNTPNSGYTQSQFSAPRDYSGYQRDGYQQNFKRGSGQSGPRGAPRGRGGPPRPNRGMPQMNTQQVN

T2: human CAPRIN-1 recombinant protein (human, UniProt Q14444 1-709)
T2 construct: also called CAPRIN-1 protein; human CAPRIN-1 protein
T2 sequence: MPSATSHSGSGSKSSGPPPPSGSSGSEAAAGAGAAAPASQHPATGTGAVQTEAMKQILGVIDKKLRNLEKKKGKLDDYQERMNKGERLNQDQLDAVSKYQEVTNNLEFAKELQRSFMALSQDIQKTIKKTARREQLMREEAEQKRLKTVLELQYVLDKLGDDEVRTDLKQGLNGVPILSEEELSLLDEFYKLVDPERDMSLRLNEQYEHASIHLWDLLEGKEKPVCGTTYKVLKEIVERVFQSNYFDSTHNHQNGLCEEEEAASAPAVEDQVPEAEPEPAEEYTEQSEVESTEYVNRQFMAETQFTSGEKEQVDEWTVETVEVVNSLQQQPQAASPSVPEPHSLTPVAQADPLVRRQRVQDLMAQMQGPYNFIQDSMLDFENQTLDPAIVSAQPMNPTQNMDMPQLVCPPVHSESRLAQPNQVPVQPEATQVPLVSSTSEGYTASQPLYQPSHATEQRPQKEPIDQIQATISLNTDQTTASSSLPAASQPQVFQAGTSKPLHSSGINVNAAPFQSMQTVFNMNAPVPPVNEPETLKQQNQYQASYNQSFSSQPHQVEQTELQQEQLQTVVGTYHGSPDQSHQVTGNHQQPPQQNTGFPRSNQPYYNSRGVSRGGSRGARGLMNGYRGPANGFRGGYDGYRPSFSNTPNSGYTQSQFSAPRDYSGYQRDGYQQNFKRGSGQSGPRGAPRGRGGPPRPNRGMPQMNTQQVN

T3: polypeptide set forth in SEQ ID NO: 430 (human)
T3 peptide: ATQVPLVSSTSEGYTA

T4: polypeptide set forth in SEQ ID NO: 266 (human)
T4 construct: identified by ELISA on synthetic 12-16 aa peptides of human CAPRIN-1
T4 peptide: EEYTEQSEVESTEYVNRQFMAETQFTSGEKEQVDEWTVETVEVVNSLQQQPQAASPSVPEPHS

T5: peptide set forth in SEQ ID NO: 267 (human)
T5 peptide: QQPQAASPSVPE

B1: mouse monoclonal antibody #3 (antibody, V domains shown)
VH: GGGLVKPGGSLKLSCAASGFTFSSYGMSWVRQTPEKRLEWVATISSGGSYTYYPDSVKGRFTISRDNAKNTLYLQMSSLRSEDTAMYYCASLASYYFDYWGQGTTLTVSS
VL: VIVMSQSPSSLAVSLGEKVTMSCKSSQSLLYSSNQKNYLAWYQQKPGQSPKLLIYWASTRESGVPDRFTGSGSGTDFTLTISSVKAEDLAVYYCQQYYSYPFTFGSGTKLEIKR
B2: mouse monoclonal antibody #12 (antibody, V domains shown)
VH: EVQLHQFGAELVKPGASVKISCKASGYTFTDYNMDWVKQSHGKSLEWIGDINPNYDSTSYNQKFKGKATLTVDKSSSTAYMELRSLTSEDTAVYYCARSRSYDYEGFAYWGQGTLVTVSA
VL: DIQMTQSPASLSASVGETVTITCRASGNIHNYLAWYQQKQGKSPQLLVYNAKTLADGVPSRFSGSGSGTQYSLKINSLQPEDFGSYYCQHFWSTLTFGAGTKLELKR
notes: mouse hybridoma antibody
B3: mouse monoclonal antibody #14 (antibody, V domains shown)
VH: B2 VH
VL: DIQLTQSPASLSASVGETVTITCRASGNIHNYLAWYQQKQGKSPQLLVYNAKTLADGVPSRFSGSGSGTQYSLKINSLQPEDFGSYYCQHFWSTLTFGGGTKLEIK
notes: mouse hybridoma antibody
B4: mouse monoclonal antibody #15 (antibody, V domains shown)
VH: B2 VH
VL: SGDRVSLSCRASQSISNYLHWYQQKSHESPRLLIKYASQSISGIPSRFSGSGSGTDFTLSINSVETEDFGMYFCQQSNSWPYTFGAGTKLEIKQ
notes: mouse hybridoma antibody
B5: mouse monoclonal antibody #18 (antibody, V domains shown)
VH: LQESGAELARPGASVKLSCKASGYTFTSYWMQWVKQRPGQGLEWIGAIYPGDGDTRYTQKFKGKATLTADKSSSTAYMQLSSLASEDSAVYYCARGEYGNYFAYWGQGTTVTVSS
VL: TSDASLGERVTITCKASQDINSYLSWFQQKPGKSPKTLIYRANRLVDGVPSRFSGSGSGQDYSLTISSLEYEDMGIYYCLQYDEFPLTFGGGTKLEIKQ
notes: mouse hybridoma antibody
B6: mouse monoclonal antibody #4 (antibody, V domains shown)
VH: GAELVRSGASVKMSCKASGYSFTDYNMYWVKQTPGQGLEWIGYIYPGNGGTNYNQKFKGKATLTADTSSSTAYMQISSLTSEDSAVYFCARDYDDGGYAMDYWGQGTTVTVSS
VL: DIQMTQSPASLSASVGETVTITCRASGNIHNYLTWYQQKQGKSPQLLVYNAKTLADGVPSRFSGSGSGTQYSLKINRLQPEDFGSYYCQHFWNIPWTFGGGTKLNSR
notes: mouse hybridoma antibody
B7: humanized anti-CAPRIN-1 antibody #2 (antibody, human IgG1, V domains shown)
VH: EVQLVESGGGLVQPGGSLRLSCAASGFSFSGSYYMSWVRQAPGKGLEWIAYIYIGDGVTAYANWAKGRFTISKDNSKNTLYLQMNSLRAEDTAVYFCARGNKLWGPGTLVTVSS
VL: DIQMTQSPSSLSASVGDRVTIKCQASQSISSYLAWYQQKPGKAPKRLIYDASNLDSGVPSRFSGSGSGTDFTFTISSLQPEDIATYYCQCTAVSSATIYGNAFGGGTKVEIK
B8: humanized anti-CAPRIN-1 antibody #3 (antibody, human IgG1, V domains shown)
VH: B7 VH with K73R, F96Y
VL: B7 VL
B9: humanized anti-CAPRIN-1 antibody #1 (antibody, human IgG1, V domains shown)
VH: B7 VH with E1Q, Q13K, K73R, S76A, T79S, K102R, P106Q
VL: B7 VL with S14A, A43P
B10: human-chicken chimeric antibody #1 (antibody, human IgG1, kappa, V domains shown)
VH: AVTLDESGGGLQMSRGGLSLVCKASGFDFSSYQMNWIRQAPGKGLEFVAAINKFGNSTGHGAAVKGRVTISRDNGQSTVRLQLNNLRAEDTAIYFCTKHAYGYCGSGTWCAAGEIDAWGHGTEVIVSS
VL: QAASTQPSSVSANPGETVEITCSGGGSYSYGWFQQKSPGSAPVTVIYYNNKRPSDIPSRFSGSKSGSTGTLTITGVQADDEAVYYCGSGDSTDTAVFGAGTTLTVLG
notes: chicken variable domains with human IgG1 H-chain and L-chain constant domains; also called human-chicken chimeric monoclonal antibody #1
B11: mouse anti-CAPRIN-1 antibody #31 (antibody, V domains shown)
VH: GPELVKPGASVKISCKASGYSFTGYFMNWVMQSHGKSLEWIGRINPYNGDTFYNQKFKGKATLTVDKSSSTAHMELRSLASEDSAVYYCARRIHYYYGSSYYAMDYWGQEPHH
VL: DVQITQSPSYLAASPGETITINCRASKSISKYLAWYQEKPGKTNKLLIYSGSTLQSGIPSRFSGSGSGTDFTLTISSLEPEDFAMYYCQQHNEYPWTFGGGTKLEIKR
notes: mouse hybridoma antibody; also called mouse anti-CAPRIN-1 monoclonal antibody #31

The target in the first test is T1, CAPRIN-1 protein on the cell surface of …. Description: flow cytometry on Hep3B, HepG2, SK-Hep-1, SW480; culture supernatant; vs isotype control. The procedure: Subsequently, four liver cancer cell lines (Hep3 GB, HepG2, SK-Hep-1, and SW480), which were confirmed to express a CAPRIN-1 gene, were investigated for whether or not a CAPRIN-1 protein is expressed on the surfaces of these cells. 1×10⁶ cells of each cell line were centrifuged with a 1.5-mL micro centrifugation tube. To the cells was added the culture supernatant (100 μL) containing any of mouse monoclonal antibodies #1 to #22 against a CAPRIN-1 protein reacting to cancer cell surface produced in Example 4 and mouse-chicken chimeric antibodies #1 to #3 against a CAPRIN-1 protein produced in the above (2), followed by being left to stand on ice for 1 hour. After washing with PBS, the cells were suspended in a FITC-labeled goat anti-mouse IgG antibody (manufactured by Invitrogen Corporation) diluted by 500-fold with PBS containing 0.1% FBS, followed by being left to stand on ice for 1 hour. After washing with PBS, the fluorescence intensity was measured with FACS Calibur available from Becton, Dickinson and Company. Separately, as a control, the same procedure as in above was performed using an iso-type control antibody, instead of the culture supernatants containing the mouse monoclonal antibodies #1 to #22 against a CAPRIN-1 protein and the mouse-chicken chimeric antibodies #1 to #3. As a result, the fluorescence intensity in the cells to which any of the monoclonal antibodies #1 to #22 and the mouse-chicken chimeric antibodies #1 to #3 was added was 20% or more higher than that in the control in every case. Specifically, in the case of using mouse-chicken chimeric antibody #1, the fluorescence intensity was enhanced by 200% or more in both SK-Hep-1 and Hep3B. […] The rate of increase in the fluorescence intensity is represented by the rate of increase in the mean fluorescence intensity (MFI value) in each cell and is calculated by the following calculation formula: […]
In general terms: In flow cytometry, cells or beads pass a laser one at a time.
As for B1, the “rate of increase in mean fluorescence intensity” value (from here on “rate of increase”) is ≥ 20%.

With B2, the “rate of increase” value was ≥ 20%.

As to B3, the “rate of increase” value is ≥ 20%.

For B4, the “rate of increase” value was ≥ 20%.

As to B5, the “rate of increase” value was ≥ 20%.

Regarding B6, the “rate of increase” value is ≥ 20%.

For a further test, the target named is T2, human CAPRIN-1 recombinant protein. In words: reactivity with CAPRIN-1 protein, method not detailed.
B7: the binding result was “binds”.

As to B8, the binding result is given as “binds”.

Consider B9, for which the binding result is “binds”.

The target in a further test is T3, polypeptide set forth in SEQ ID NO: 430. Description: reactivity with the epitope peptide, method not detailed.
Turning to B7, the binding result is given as “binds”.

On to B8, for which the binding result is given as “binds”.

Regarding B9, the binding result is listed as “binds”.

For a further test, the target named is T1, CAPRIN-1 protein on the cell surface of …. In words: cell-based or functional assay.
Consider B1, for which the “cytotoxicity (ADCC, 51Cr release) on SK-Hep-1” value (shortened to “cytotoxicity”) was ≥ 12%.

On to B2, for which the “cytotoxicity” value was ≥ 12%.

With B3, the “cytotoxicity” value is ≥ 12%.

As for B4, the “cytotoxicity” value is ≥ 12%.

Turning to B5, the “cytotoxicity” value is ≥ 12%.

Consider B6, for which the “cytotoxicity” value is ≥ 12%.

A further test has the same target. Description: reactivity with liver cancer cell lines, method not detailed.
On to B7, for which the binding result is given as “binds”.

With B8, the binding result was “binds”.

Consider B9, for which the binding result was “binds”.

For another test, the target named is T4, polypeptide set forth in SEQ ID NO: 266. In words: ELISA on immobilised synthetic CAPRIN-1 peptides, culture supernatant. A general note: An ELISA detects its analyte on a solid surface through an enzyme-linked reagent.
For the molecule B10, the binding result is on record as “binds”.

In the case of B6, the binding result is recorded as “binds”.

The target of the next test is T5, peptide set forth in SEQ ID NO: 267. The test is described as above.
For the molecule B10, the binding result is given as “binds”.

On to B6, for which the binding result is given as “binds”.

A further test addresses T1, CAPRIN-1 protein on the cell surface of …. In words: flow cytometry on Hep3B, HepG2, SK-Hep-1, SW480; antibody 20 ug/mL; control: secondary antibody only. The procedure: Four human liver cancer cell lines (Hep3 GB, HepG2, SK-Hep-1, and SW480) were investigated whether or not a CAPRIN-1 protein is expressed on the cell surface using mouse anti-CAPRIN-1 monoclonal antibodies #30 to #36. 5×10⁵ cells of each of the liver cancer cell lines were centrifuged with a 1.5-mL micro centrifugation tube. The cells were subjected to reaction with each of mouse anti-CAPRIN-1 antibodies #30 to #36 at a final concentration of 20 μg/mL, followed by being left to stand on ice for 1 hour. After washing with PBS, the cells were reacted with a 100-fold diluted Alexa488-labeled goat anti-mouse IgG antibody (manufactured by Invitrogen Corporation), followed by being left to stand on ice for […]. After washing with PBS, the fluorescence intensity was measured with FACS Calibur available from Becton, Dickinson and Company. Separately, the cells were subjected to reaction with only the secondary antibody as a negative control.
Consider B11, for which the “increase in fluorescence intensity over the control” value was ≥ 35%.
